Measurements from publication PMC3296934 (Frontiers in Molecular Neuroscience, 2012).

target: calmodulin (bovine, UniProt P62157 1-149); assay: SPR

Binder	Kd
GST fusion of the RK amino terminal region (N-RK: M1-G183) (domain or fragment) MDFGSLETVVANSAFIAARGSFDASSGPASRDRKYLARLKLPPLSKCEALRESLDLGFEGMCLEQPIGKRLFQQFLRTHEQHGPALQLWKDIEDYDTADDALRPQKAQALRAAYLEPQAQLFCSFLDAETVARARAGAGDGLFQPLLRAVLAHLGQAPFQEFLDSLYFLRFLQWKWLEAQPMG	63 µM
GST-RK fragment M1-L102 (domain or fragment) MDFGSLETVVANSAFIAARGSFDASSGPASRDRKYLARLKLPPLSKCEALRESLDLGFEGMCLEQPIGKRLFQQFLRTHEQHGPALQLWKDIEDYDTADDAL	54 µM
GST-RK fragment L102-G183 (domain or fragment) LRPQKAQALRAAYLEPQAQLFCSFLDAETVARARAGAGDGLFQPLLRAVLAHLGQAPFQEFLDSLYFLRFLQWKWLEAQPMG	23 µM
GST-RK fragment F125-K175 (domain or fragment) FLDAETVARARAGAGDGLFQPLLRAVLAHLGQAPFQEFLDSLYFLRFLQWK	17 µM
